Reference: patent US20210403555A1 (JAPANESE FOUNDATION FOR CANCER RESEARCH, published 2021)

What was measured:
[1] = target: T1, Recombinant human podoplanin Fc chimera protein (R&D, 3670-PL) (human, UniProt Q86YL7 23-128); assay: competition ELISA: inhibition of podoplanin-Fc binding to CLEC-2 on solid phase; positive control
T1 construct: Bought reagent; not shown: Fc part of the bought chimera (detected with anti-human IgG Fc)
T1 sequence (looked up): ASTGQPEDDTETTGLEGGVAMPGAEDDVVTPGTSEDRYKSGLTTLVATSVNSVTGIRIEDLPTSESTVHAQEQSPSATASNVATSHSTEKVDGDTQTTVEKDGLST
From the text: (§1) The culture supernatants collected in Production Examples 1 and 2 were used to measure the inhibitory activity against binding of podoplanin to CLEC-2, following the ELISA protocol described in Patent Document 1.
The mouse antibody PG4D2 (PG4D2) was used as a positive control. The mouse antibody PG4D2 is a monoclonal antibody that is obtained from the NITE P-02071 (PG4D2) hybridoma.

[2] = target: T1, Recombinant human podoplanin Fc chimera …; assay: competition ELISA: inhibition of podoplanin-Fc binding to CLEC-2 on solid phase
From the text: as §1

[3] = target: T2, Peptide of the human podoplanin PLAG4 domain (WT-hPLAG4 (Genscript, 788349-1)) (human, UniProt Q86YL7 76-89, limits assumed); assay: ELISA, PLAG4 peptide on solid phase, culture supernatant; the reference itself, set as 100%
T2 construct: domain: PLAG4 domain
T2 peptide (looked up): TGIRIEDLPTSEST
From the text: The culture supernatants collected in Production Examples 1 and 2 were used to measure the binding activity to the podoplanin PLAG4 domain, following the ELISA protocol described in Patent Document 1. A peptide of the human podoplanin PLAG4 domain (WT-hPLAG4 (Genscript, 788349-1)) as an antigen peptide was immobilized on a solid phase, and a preadsorbed goat biotin-conjugated anti-human IgG Fc antibody (Abcam, ab98618) and β-Gal-conjugated streptavidin (Roche Diagnostics, 11112481001) were used for a detection purpose.
The avidity (antibody titer) of each antibody was expressed relative to that of the mouse-human chimeric antibody chPG4D2, which is set as 100%.

| Binder | IC50 [1] | IC50 [2] | Avidity (antibody titer) (%) relative to chPG4D2 [3] |
| --- | --- | --- | --- |
| Mouse antibody PG4D2 (antibody, V domains shown) VH: DVQLVESGGGLVQPGGSRKLSCAASGFTFSGFGMLWVRQAPEKGLEWVAYISSVSSRIYYADTVKGRFTISRDNPKNTLFLQMTSLRSEDTAMYYCARESYGPAWFAYWGQGTLVTVSA VL: DVLMTQTPLSLPVSLGDQASISCRSSQHIVHIDGNTYLEWYLQQPGQSPKLLIYKVSNRFSGVPDRFSGSGSGTDFTLRISRVEAEDLGVYYCFQGSHVPYTFGGGTKLEMK | 0.371 µg/mL |  |  |
| Mouse-human chimeric antibody chPG4D2 (antibody, human IgG4 S228P, kappa, V domains shown) VH: DVQLVESGGGLVQPGGSRKLSCAASGFTFSGFGMLWVRQAPEKGLEWVAYISSVSSRIYYADTVKGRFTISRDNPKNTLFLQMTSLRSEDTAMYYCARESYGPAWFAYWGQGTLVTVSA VL: DVLMTQTPLSLPVSLGDQASISCRSSQHIVHIDGNTYLEWYLQQPGQSPKLLIYKVSNRFSGVPDRFSGSGSGTDFTLRISRVEAEDLGVYYCFQGSHVPYTFGGGTKLEMKR |  | 0.406 µg/mL | 100% |
| Humanized antibody K4 (antibody, human IgG4 S228P, kappa, V domains shown) VH: EVQLVESGGGLVQPGGSLRLSCAASGFTFSGFGMLWVRQAPGKGLEWVAYISSVSSRIYYADTVKGRFTISRDNAKNSLYLQMNSLRAEDTAVYYCARESYGPAWFAYWGQGTLVTVSS VL: DIVMTQSPLSLPVTPGEPASISCRSSQHIVHIDGNTYLEWYLQKPGQSPQLLIYKVSNRFSGVPDRFSGSGSGTDFTLKISRVEAEDVGVYYCFQGSHVPYTFGGGTKVEIKR |  | 0.36 µg/mL |  |
| Humanized antibody K5 (antibody, human IgG4 S228P, kappa, V domains shown) VH: EVQLVESGGGLVQPGGSLRLSCAASGFTFSGFGMLWVRQAPGKGLEWVSYISSVSSRIYYADTVKGRFTISRDNSKNTLYLQMNSLRAEDTAVYYCARESYGPAWFAYWGQGTLVTVSS VL: DIVMTQSPLSLPVTPGEPASISCRSSQHIVHIDGNTYLEWYLQKPGQSPQLLIYKVSNRFSGVPDRFSGSGSGTDFTLKISRVEAEDVGVYYCFQGSHVPYTFGGGTKVEIKR |  | 0.364 µg/mL |  |
